B1: AF-mab023_01 (antibody, V domains shown)
VH: EVQLVESGGGLVQPGGSLRLSCAASGITFSSYWMSWVRQAPGKGLEWVANIKQDGSEKYYVDSVKGRFTISRDIAKNSLYLQMNSLRAEDTAVYYCARDRGTYYYGIGSYNYYYYGMDVWGQGTTVTVSS
VL: not shown
B2: AF-mab023_14 (antibody, V domains shown)
VH: EVQLVESGGGLVQPGGSLRLSCAASGITFSSYWMSWVRQAPGKGLEWVANIKQDGSEKYYVDSVKGRFTISRDIAKNSLYLQMNSLRAEDTAVYYCARDRGTYYYADGGYNYYYYGMDVWGQGTTVTVSS
VL: not shown
B3: AF-mab023_05 (antibody, V domains shown)
VH: EVQLVESGGGLVQPGGSLRLSCAASGITFSSYWMSWVRQAPGKGLEWVANIKQDGSEKYYVDSVKGRFTISRDIAKNSLYLQMNSLRAEDTAVYYCARDRGTYYHWLGSYNYYYYGMDVWGQGTTVTVSS
VL: not shown
B4: AF-mab023_11 (antibody, V domains shown)
VH: EVQLVESGGGLVQPGGSLRLSCAASGITFSSYWMSWVRQAPGKGLEWVANIKQDGSEKYYVDSVKGRFTISRDIAKNSLYLQMNSLRAEDTAVYYCARDRGTYYYQEGSYNYYYYGMDVWGQGTTVTVSS
VL: not shown
B5: AF-mab023_06 (antibody, V domains shown)
VH: EVQLVESGGGLVQPGGSLRLSCAASGITFSSYWMSWVRQAPGKGLEWVANIKQDGSEKYYVDSVKGRFTISRDIAKNSLYLQMNSLRAEDTAVYYCARDRGTYYFQSGSYNYYYYGMDVWGQGTTVTVSS
VL: not shown
B6: AF-mab023_17 (antibody, V domains shown)
VH: EVQLVESGGGLVQPGGSLRLSCAASGITFSSYWMSWVRQAPGKGLEWVANIKQDGSEKYYVDSVKGRFTISRDIAKNSLYLQMNSLRAEDTAVYYCARDRGTYYTGMGEYNYYYYGMDVWGQGTTVTVSS
VL: not shown
B7: AF-mab023_10 (antibody, V domains shown)
VH: EVQLVESGGGLVQPGGSLRLSCAASGITFSSYWMSWVRQAPGKGLEWVANIKQDGSEKYYVDSVKGRFTISRDIAKNSLYLQMNSLRAEDTAVYYCARDRGTYYYDSGRYNYYYYGMDVWGQGTTVTVSS
VL: not shown
B8: AF-mab023_19 (antibody, V domains shown)
VH: EVQLVESGGGLVQPGGSLRLSCAASGITFSSYWMSWVRQAPGKGLEWVANIKQDGSEKYYVDSVKGRFTISRDIAKNSLYLQMNSLRAEDTAVYYCARDRGTYYYASGKYNYYYYGMDVWGQGTTVTVSS
VL: not shown
B9: AF-mab023_03 (antibody, V domains shown)
VH: EVQLVESGGGLVQPGGSLRLSCAASGITFSSYWMSWVRQAPGKGLEWVANIKQDGSEKYYVDSVKGRFTISRDIAKNSLYLQMNSLRAEDTAVYYCARDRGTYYYASGSYNYYYYGMDVWGQGTTVTVSS
VL: not shown
B10: AF-mab023_07 (antibody, V domains shown)
VH: EVQLVESGGGLVQPGGSLRLSCAASGITFSSYWMSWVRQAPGKGLEWVANIKQDGSEKYYVDSVKGRFTISRDIAKNSLYLQMNSLRAEDTAVYYCARDRGTYYYQQGSYNYYYYGMDVWGQGTTVTVSS
VL: not shown
B11: AF-mab023_08 (antibody, V domains shown)
VH: EVQLVESGGGLVQPGGSLRLSCAASGITFSSYWMSWVRQAPGKGLEWVANIKQDGSEKYYVDSVKGRFTISRDIAKNSLYLQMNSLRAEDTAVYYCARDRGTYYIADGSYNYYYYGMDVWGQGTTVTVSS
VL: not shown
B12: AF-mab023_02 (antibody, V domains shown)
VH: EVQLVESGGGLVQPGGSLRLSCAASGITFSSYWMSWVRQAPGKGLEWVANIKQDGSEKYYVDSVKGRFTISRDIAKNSLYLQMNSLRAEDTAVYYCARDRGTYYYWLGTYNYYYYGMDVWGQGTTVTVSS
VL: not shown
B13: AF-mab023_16 (antibody, V domains shown)
VH: EVQLVESGGGLVQPGGSLRLSCAASGITFSSYWMSWVRQAPGKGLEWVANIKQDGSEKYYVDSVKGRFTISRDIAKNSLYLQMNSLRAEDTAVYYCARDRGTYYYQDGKYNYYYYGMDVWGQGTTVTVSS
VL: not shown
B14: AF-mab023_12 (antibody, V domains shown)
VH: EVQLVESGGGLVQPGGSLRLSCAASGITFSSYWMSWVRQAPGKGLEWVANIKQDGSEKYYVDSVKGRFTISRDIAKNSLYLQMNSLRAEDTAVYYCARDRGTYYYTEGGYNYYYYGMDVWGQGTTVTVSS
VL: not shown
B15: AF-mab023_15 (antibody, V domains shown)
VH: EVQLVESGGGLVQPGGSLRLSCAASGITFSSYWMSWVRQAPGKGLEWVANIKQDGSEKYYVDSVKGRFTISRDIAKNSLYLQMNSLRAEDTAVYYCARDRGTYYYQDGNYNYYYYGMDVWGQGTTVTVSS
VL: not shown
B16: AF-mab023_13 (antibody, V domains shown)
VH: EVQLVESGGGLVQPGGSLRLSCAASGITFSSYWMSWVRQAPGKGLEWVANIKQDGSEKYYVDSVKGRFTISRDIAKNSLYLQMNSLRAEDTAVYYCARDRGTYYYTEGSYNYYYYGMDVWGQGTTVTVSS
VL: not shown
B17: AF-mab023_04 (antibody, V domains shown)
VH: EVQLVESGGGLVQPGGSLRLSCAASGITFSSYWMSWVRQAPGKGLEWVANIKQDGSEKYYVDSVKGRFTISRDIAKNSLYLQMNSLRAEDTAVYYCARDRGTYYYDSGGYNYYYYGMDVWGQGTTVTVSS
VL: not shown
B18: AF-mab023_18 (antibody, V domains shown)
VH: EVQLVESGGGLVQPGGSLRLSCAASGITFSSYWMSWVRQAPGKGLEWVANIKQDGSEKYYVDSVKGRFTISRDIAKNSLYLQMNSLRAEDTAVYYCARDRGTYYYADGDYNYYYYGMDVWGQGTTVTVSS
VL: not shown

The target in the experiment is T1, recombinant human PCSK9-His protein (Immunogen A) (human, UniProt Q8NBP7 31-692, limits assumed, biotinylated in the ELISA assays).
T1 construct: also called hPCSK9-His; His-tagged hPCSK9; not shown: His tag
Nature of the experiment: SPR, Biacore.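 Note: antibodies captured via immobilized anti-human Fc IgG on a CM5 chip, PCSK9 as analyte in HBS-EP+ buffer, 400 s dissociation, reference flow cell subtracted, 1:1 binding model fit.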 For orientation: In SPR one partner is held on a chip, and binding of the other changes the refractive index at the surface.
For the molecule B1, the Kd turned out to be 0.36 nM, the koff amounted to 0.000115 s⁻¹ and the kon was 320000 M⁻¹ s⁻¹.

In the case of B2, the Kd came to 0.306 nM, the koff amounted to 0.000164 s⁻¹ and the kon turned out to be 534000 M⁻¹ s⁻¹.

B3: the Kd is 0.207 nM, the koff is 6.31e-05 s⁻¹ and the kon was 305000 M⁻¹ s⁻¹.

Consider B4, for which the Kd amounted to 0.26 nM, the koff is 0.000144 s⁻¹ and the kon is 553000 M⁻¹ s⁻¹.

B5: the Kd is 0.225 nM, the koff was determined as 6.59e-05 s⁻¹ and the kon is 293000 M⁻¹ s⁻¹.

For the molecule B6, the Kd turned out to be 0.31 nM, the koff came to 0.000109 s⁻¹ and the kon stood at 351000 M⁻¹ s⁻¹.

B7: the Kd is 1.05 nM, the koff is 0.000328 s⁻¹ and the kon turned out to be 313000 M⁻¹ s⁻¹.

As for B8, the Kd worked out at 1.55 nM, the koff was 0.000351 s⁻¹ and the kon was determined as 226000 M⁻¹ s⁻¹.

B9: the Kd was 1.24 nM, the koff was 0.00046 s⁻¹ and the kon stood at 370000 M⁻¹ s⁻¹.

Regarding B10, the Kd stood at 0.653 nM, the koff stood at 0.000214 s⁻¹ and the kon worked out at 327000 M⁻¹ s⁻¹.

B11: the Kd is 0.443 nM, the koff came out at 0.000158 s⁻¹ and the kon was determined as 357000 M⁻¹ s⁻¹.

As for B12, the Kd was 0.268 nM, the koff is 8.2e-05 s⁻¹ and the kon is 306000 M⁻¹ s⁻¹.

In the case of B13, the Kd turned out to be 0.447 nM, the koff amounted to 0.000143 s⁻¹ and the kon is 319000 M⁻¹ s⁻¹.

For the molecule B14, the Kd was 0.176 nM, the koff was 8.47e-05 s⁻¹ and the kon came out at 480000 M⁻¹ s⁻¹.

Take B15: the Kd was 0.381 nM, the off-rate constant (koff) was 0.000182 s⁻¹ and the on-rate constant (kon) is 477000 M⁻¹ s⁻¹.

As to B16, the Kd turned out to be 0.392 nM, the koff was determined as 0.000178 s⁻¹ and the kon amounted to 455000 M⁻¹ s⁻¹.

In the case of B17, the Kd is 0.409 nM, the koff is 0.000239 s⁻¹ and the kon was 584000 M⁻¹ s⁻¹.

Consider B18, for which the Kd was determined as 0.292 nM, the koff amounted to 0.000161 s⁻¹ and the kon is 551000 M⁻¹ s⁻¹.

For orientation: Kd means the concentration at which binding is half-saturated. As a reminder, the koff is the rate constant with which the complex falls apart. As a reminder, the kon is the rate constant with which the complex forms.

(Values after patent publication US20180355059A1 (PHARMAEXPLORER, published 2018).)
